Bridge positions count the residues as written; N and C are the ends. Square brackets hold non-standard residues; d marks the D form. Ends that are not written are not given here. * marks the point of attachment. X5 = Tetrahydropyranyl‑4‑acetic acid, O=C(CC1CCOCC1)*; Oic = O=C(O)[C@@H]1C[C@@H]2CCCC[C@@H]2N1; Butanoyl(3,3-Me2) = CC(C)(C)CC(=O)*; Hyp = O=C(O)[C@@H]1C[C@@H](O)CN1; NMeI = CC[C@H](C)[C@H](NC)C(=O)O; aIle = CC[C@@H](C)[C@H](N)C(=O)O; tBuAla = CC(C)(C)C[C@H](N)C(=O)O; Pen = CC(C)(S)[C@H](N)C(=O)O; NMeC = CN[C@@H](CS)C(=O)O; Me2Gly = CN(C)CC(=O)*; Sar = CNCC(=O)O

Test [1] deals with T1, recombinant human MASP1 active protease (amino acids 297-699, C-terminal His Tag) (human, UniProt P48740 297-699).
T1 sequence: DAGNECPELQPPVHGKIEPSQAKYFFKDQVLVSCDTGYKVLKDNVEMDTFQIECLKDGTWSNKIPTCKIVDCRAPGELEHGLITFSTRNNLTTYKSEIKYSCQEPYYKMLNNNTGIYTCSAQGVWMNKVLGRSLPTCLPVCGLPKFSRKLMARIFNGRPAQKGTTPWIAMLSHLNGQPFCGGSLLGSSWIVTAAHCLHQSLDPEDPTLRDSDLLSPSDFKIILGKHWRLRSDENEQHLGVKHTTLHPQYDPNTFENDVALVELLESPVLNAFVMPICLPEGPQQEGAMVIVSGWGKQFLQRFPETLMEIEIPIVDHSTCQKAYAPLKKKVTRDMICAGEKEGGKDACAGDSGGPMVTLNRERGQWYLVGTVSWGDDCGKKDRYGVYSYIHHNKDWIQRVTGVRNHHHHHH
Briefly: cell-based or functional assay.

Test [2] concerns the target recombinant human MASP2 active protease (amino acids 297-686, C-terminal His Tag) (human, UniProt O00187 297-686). The test can be described thus: cell-based or functional assay.

recombinant human MASP2 active protease (amino acids 297-686, C-terminal His Tag), sequence (O00187 other isoform, or with tags, fused parts or gaps limits assumed): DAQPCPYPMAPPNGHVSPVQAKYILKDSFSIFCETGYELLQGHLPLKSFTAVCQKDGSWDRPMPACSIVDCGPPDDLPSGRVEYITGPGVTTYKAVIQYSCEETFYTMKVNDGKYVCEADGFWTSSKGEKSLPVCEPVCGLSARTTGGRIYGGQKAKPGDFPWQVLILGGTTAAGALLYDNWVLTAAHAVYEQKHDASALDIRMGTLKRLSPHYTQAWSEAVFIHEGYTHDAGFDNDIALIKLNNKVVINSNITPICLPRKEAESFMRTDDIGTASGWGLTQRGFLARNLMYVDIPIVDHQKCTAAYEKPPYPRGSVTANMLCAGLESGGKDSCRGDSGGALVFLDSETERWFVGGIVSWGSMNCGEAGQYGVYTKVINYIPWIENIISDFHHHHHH

B1: Example 346: AIC+SRSLPP-(allo-I)-C+IPD-NH2 (peptide)
peptide: AICSRSLPP[aIle]CIPD-NH2
modifications: disulfide 3-11; N-terminus assumed
SMILES: CC[C@@H](C)[C@@H]1NC(=O)[C@@H]2CCCN2C(=O)[C@@H]2CCCN2C(=O)[C@H](CC(C)C)NC(=O)[C@H](CO)NC(=O)[C@H](CCCNC(=N)N)NC(=O)[C@H](CO)NC(=O)[C@@H](NC(=O)[C@@H](NC(=O)[C@H](C)N)[C@@H](C)CC)CSSC[C@@H](C(=O)N[C@H](C(=O)N2CCC[C@H]2C(=O)N[C@@H](CC(=O)O)C(N)=O)[C@@H](C)CC)NC1=O
Consider B1, for which the “human MASP1 IC50” value in test [1] worked out at 27 nM. For the same molecule, in test [2], the “human MASP2 IC50” value amounted to 190 nM.

B2: Example 336: IC+SRSLP-(Oic)-I-(Pen)+IP-NH2 (peptide)
peptide: ICSRSLP[Oic]I[Pen]IP-NH2
modifications: disulfide 2-10; N-terminus assumed
SMILES: CC[C@H](C)[C@H](N)C(=O)N[C@H]1CSSC(C)(C)[C@@H](C(=O)N[C@H](C(=O)N2CCC[C@H]2C(N)=O)[C@@H](C)CC)NC(=O)[C@H]([C@@H](C)CC)NC(=O)[C@@H]2C[C@@H]3CCCC[C@@H]3N2C(=O)[C@@H]2CCCN2C(=O)[C@H](CC(C)C)NC(=O)[C@H](CO)NC(=O)[C@H](CCCNC(=N)N)NC(=O)[C@H](CO)NC1=O
With B2, the “human MASP1 IC50” value in test [1] turned out to be 25 nM. For the same molecule, the “human MASP2 IC50” value in test [2] was found to be 690 nM.

B3: Example 349: ((N-Me)G)-IC+SRSLP-(Oic)-IC+IPD-OH (peptide)
peptide: [Sar]ICSRSLP[Oic]ICIPD-OH
modifications: disulfide 3-11; N-terminus assumed
SMILES: CC[C@H](C)[C@H](NC(=O)CNC)C(=O)N[C@H]1CSSC[C@@H](C(=O)N[C@H](C(=O)N2CCC[C@H]2C(=O)N[C@@H](CC(=O)O)C(=O)O)[C@@H](C)CC)NC(=O)[C@H]([C@@H](C)CC)NC(=O)[C@@H]2C[C@@H]3CCCC[C@@H]3N2C(=O)[C@@H]2CCCN2C(=O)[C@H](CC(C)C)NC(=O)[C@H](CO)NC(=O)[C@H](CCCNC(=N)N)NC(=O)[C@H](CO)NC1=O
Consider B3, for which the “human MASP1 IC50” value in test [1] was found to be 9.6 nM. In addition, the “human MASP2 IC50” value in test [2] is 420 nM.

B4: Example 333: (tert-Butylacetic acid)-IC+SRS-((tBu)A)-PPI-((N-Me)C)+I-NH2 (peptide)
peptide: {Butanoyl(3,3-Me2)}-ICSRS[tBuAla]PPI[NMeC]I-NH2
modifications: disulfide 2-10
SMILES: CC[C@H](C)[C@H](NC(=O)[C@@H]1CSSC[C@H](NC(=O)[C@@H](NC(=O)CC(C)(C)C)[C@@H](C)CC)C(=O)N[C@@H](CO)C(=O)N[C@@H](CCCNC(=N)N)C(=O)N[C@@H](CO)C(=O)N[C@@H](CC(C)(C)C)C(=O)N2CCC[C@H]2C(=O)N2CCC[C@H]2C(=O)N[C@@H]([C@@H](C)CC)C(=O)N1C)C(N)=O
With B4, the “human MASP1 IC50” value in test [1] was 25 nM. Further, the “human MASP2 IC50” value in test [2] came out at 8.4 nM.

B5: Example 340: ((N-Me)G)-((N-Me)I)-C+SRSLPPIC+IPD-NH2 (peptide)
peptide: [Sar][NMeI]CSRSLPPICIPD-NH2
modifications: disulfide 3-11; N-terminus assumed
SMILES: CC[C@H](C)[C@@H]1NC(=O)[C@@H]2CCCN2C(=O)[C@@H]2CCCN2C(=O)[C@H](CC(C)C)NC(=O)[C@H](CO)NC(=O)[C@H](CCCNC(=N)N)NC(=O)[C@H](CO)NC(=O)[C@@H](NC(=O)[C@H]([C@@H](C)CC)N(C)C(=O)CNC)CSSC[C@@H](C(=O)N[C@H](C(=O)N2CCC[C@H]2C(=O)N[C@@H](CC(=O)O)C(N)=O)[C@@H](C)CC)NC1=O
B5: in test [1], the “human MASP1 IC50” value was found to be 26 nM. Moreover, the “human MASP2 IC50” value in test [2] was determined as 300 nM.

B6: Example 348: GIC+SRSLPPIC+I-(Hyp)-D-OH (peptide)
peptide: GICSRSLPPICI[Hyp]D-OH
modifications: disulfide 3-11; N-terminus assumed
SMILES: CC[C@H](C)[C@H](NC(=O)CN)C(=O)N[C@H]1CSSC[C@@H](C(=O)N[C@H](C(=O)N2C[C@H](O)C[C@H]2C(=O)N[C@@H](CC(=O)O)C(=O)O)[C@@H](C)CC)NC(=O)[C@H]([C@@H](C)CC)NC(=O)[C@@H]2CCCN2C(=O)[C@@H]2CCCN2C(=O)[C@H](CC(C)C)NC(=O)[C@H](CO)NC(=O)[C@H](CCCNC(=N)N)NC(=O)[C@H](CO)NC1=O
Regarding B6, in test [1], the “human MASP1 IC50” value came out at 28 nM. For the same molecule, in test [2], the “human MASP2 IC50” value turned out to be 690 nM.

B7: Example 341: IC+SRSLP-(Oic)-I-(Pen)+I-NH2 (peptide)
peptide: ICSRSLP[Oic]I[Pen]I-NH2
modifications: disulfide 2-10; N-terminus assumed
SMILES: CC[C@H](C)[C@H](N)C(=O)N[C@H]1CSSC(C)(C)[C@@H](C(=O)N[C@H](C(N)=O)[C@@H](C)CC)NC(=O)[C@H]([C@@H](C)CC)NC(=O)[C@@H]2C[C@@H]3CCCC[C@@H]3N2C(=O)[C@@H]2CCCN2C(=O)[C@H](CC(C)C)NC(=O)[C@H](CO)NC(=O)[C@H](CCCNC(=N)N)NC(=O)[C@H](CO)NC1=O
With B7, the “human MASP1 IC50” value in test [1] is 26 nM. For the same molecule, in test [2], the “human MASP2 IC50” value is 430 nM.

In the case of AICSRS[2‑Amino‑7‑(tert-butoxy)‑7‑oxoheptanoic acid]PPI[Pen]IPD-NH2 (disulfide 3-11) [Example 344: AIC+SRS-(2-Amino-7-(tert-butoxy)-7-oxoheptanoic acid)-PPI-(Pen)+IPD-NH2], the “human MASP1 IC50” value in test [1] amounted to 27 nM. Further, in test [2], the “human MASP2 IC50” value is 51 nM.

B8: Example 342: (Tetrahydropyranyl-4-acetic acid)-IC+SRS-((tBu)A)-PPIC+IPD-NH2 (peptide)
peptide: X5-ICSRS[tBuAla]PPICIPD-NH2
modifications: disulfide 2-10
SMILES: CC[C@H](C)[C@H](NC(=O)CC1CCOCC1)C(=O)N[C@H]1CSSC[C@@H](C(=O)N[C@H](C(=O)N2CCC[C@H]2C(=O)N[C@@H](CC(=O)O)C(N)=O)[C@@H](C)CC)NC(=O)[C@H]([C@@H](C)CC)NC(=O)[C@@H]2CCCN2C(=O)[C@@H]2CCCN2C(=O)[C@H](CC(C)(C)C)NC(=O)[C@H](CO)NC(=O)[C@H](CCCNC(=N)N)NC(=O)[C@H](CO)NC1=O
Regarding B8, in test [1], the “human MASP1 IC50” value was 26 nM. Further, the “human MASP2 IC50” value in test [2] is 17 nM.

B9: Example 339: ((N-Me)G)-IC+SRSLPPIC+IPE-OH (peptide)
peptide: [Sar]ICSRSLPPICIPE-OH
modifications: disulfide 3-11; N-terminus assumed
SMILES: CC[C@H](C)[C@H](NC(=O)CNC)C(=O)N[C@H]1CSSC[C@@H](C(=O)N[C@H](C(=O)N2CCC[C@H]2C(=O)N[C@@H](CCC(=O)O)C(=O)O)[C@@H](C)CC)NC(=O)[C@H]([C@@H](C)CC)NC(=O)[C@@H]2CCCN2C(=O)[C@@H]2CCCN2C(=O)[C@H](CC(C)C)NC(=O)[C@H](CO)NC(=O)[C@H](CCCNC(=N)N)NC(=O)[C@H](CO)NC1=O
With B9, the “human MASP1 IC50” value in test [1] amounted to 26 nM. Besides, the “human MASP2 IC50” value in test [2] was 640 nM.

B10: Example 335: ((tBu)A)-IC+SRSLP-(Oic)-I-(Pen)+IP-OH (peptide)
peptide: [tBuAla]ICSRSLP[Oic]I[Pen]IP-OH
modifications: disulfide 3-11; N-terminus assumed
SMILES: CC[C@H](C)[C@H](NC(=O)[C@@H](N)CC(C)(C)C)C(=O)N[C@H]1CSSC(C)(C)[C@@H](C(=O)N[C@H](C(=O)N2CCC[C@H]2C(=O)O)[C@@H](C)CC)NC(=O)[C@H]([C@@H](C)CC)NC(=O)[C@@H]2C[C@@H]3CCCC[C@@H]3N2C(=O)[C@@H]2CCCN2C(=O)[C@H](CC(C)C)NC(=O)[C@H](CO)NC(=O)[C@H](CCCNC(=N)N)NC(=O)[C@H](CO)NC1=O
For B10, the “human MASP1 IC50” value in test [1] was found to be 25 nM. The “human MASP2 IC50” value in test [2] is 180 nM.

B11: Example 331: A-(allo-I)C+SRSLPPIC+IPD-NH2 (peptide)
peptide: A[aIle]CSRSLPPICIPD-NH2
modifications: disulfide 3-11; N-terminus assumed
SMILES: CC[C@@H](C)[C@H](NC(=O)[C@H](C)N)C(=O)N[C@H]1CSSC[C@@H](C(=O)N[C@H](C(=O)N2CCC[C@H]2C(=O)N[C@@H](CC(=O)O)C(N)=O)[C@@H](C)CC)NC(=O)[C@H]([C@@H](C)CC)NC(=O)[C@@H]2CCCN2C(=O)[C@@H]2CCCN2C(=O)[C@H](CC(C)C)NC(=O)[C@H](CO)NC(=O)[C@H](CCCNC(=N)N)NC(=O)[C@H](CO)NC1=O
Turning to B11, the “human MASP1 IC50” value in test [1] was found to be 24 nM. In test [2], the “human MASP2 IC50” value turned out to be 610 nM.

Regarding AICSRS[(2S)‑2‑Amino‑4,4,4‑trifluorobutanoic acid]PPI[NMeC]IPD-NH2 (disulfide 3-11) [Example 337: AIC+SRS-((2S)-2-Amino-4,4,4-trifluorobutanoic acid)-PPI-((N-Me)C)+IPD-NH2], the “human MASP1 IC50” value in test [1] amounted to 25 nM. For the same molecule, the “human MASP2 IC50” value in test [2] stood at 2000 nM.

B12: Example 350: ((N,N-diMe)G)-IC+SRSLPPIC+IPD-NH2 (peptide)
peptide: [Me2Gly]ICSRSLPPICIPD-NH2
modifications: disulfide 3-11
SMILES: CC[C@H](C)[C@H](NC(=O)CN(C)C)C(=O)N[C@H]1CSSC[C@@H](C(=O)N[C@H](C(=O)N2CCC[C@H]2C(=O)N[C@@H](CC(=O)O)C(N)=O)[C@@H](C)CC)NC(=O)[C@H]([C@@H](C)CC)NC(=O)[C@@H]2CCCN2C(=O)[C@@H]2CCCN2C(=O)[C@H](CC(C)C)NC(=O)[C@H](CO)NC(=O)[C@H](CCCNC(=N)N)NC(=O)[C@H](CO)NC1=O
For the molecule B12, the “human MASP1 IC50” value in test [1] stood at 28 nM. In test [2], the “human MASP2 IC50” value was 370 nM.

[(2S,3S)‑2‑((3R)-3-Amino-2-oxopyrrolidin-1-yl)‑3‑methylpentanoic acid]CSRSLPPICIAD-OH (disulfide 2-10): the “human MASP1 IC50” value in test [1] turned out to be 26 nM. Besides, in test [2], the “human MASP2 IC50” value worked out at 360 nM.

B13: Example 345: IC+SRS-((tBu)A)-PPI-(Pen)+I-NH2 (peptide)
peptide: ICSRS[tBuAla]PPI[Pen]I-NH2
modifications: disulfide 2-10; N-terminus assumed
SMILES: CC[C@H](C)[C@H](N)C(=O)N[C@H]1CSSC(C)(C)[C@@H](C(=O)N[C@H](C(N)=O)[C@@H](C)CC)NC(=O)[C@H]([C@@H](C)CC)NC(=O)[C@@H]2CCCN2C(=O)[C@@H]2CCCN2C(=O)[C@H](CC(C)(C)C)NC(=O)[C@H](CO)NC(=O)[C@H](CCCNC(=N)N)NC(=O)[C@H](CO)NC1=O
For B13, the “human MASP1 IC50” value in test [1] was found to be 27 nM. In test [2], the “human MASP2 IC50” value came to 390 nM.

The record behind these values is patent publication US20210246166A1 (Bayer, published 2021).
